Target: Msm RNAP core, recombinant (α, ω, β–β′ fusion with C-terminal His8) (Mycobacterium smegmatis) (UniProt A0QSL8)

- ATPase activity of the HelD–core and HelD–holoenzyme complexes against free HelD: 2.5 fold
B1: Msm HelD, wild type, recombinant tag-less (enzyme)
chain: MSGRDYEDELQSERDYVAGLYARLDAERAQSQRRYAAALREHGGTAVERDAEVRALAKDIARLNVADNGLCFGRLDTLDDARLYIGRLGIFDRDNDFEPLLLDWRAPMARPFYVATAANPENMRRRRQFHTLGRKVVDFTDEILGRPTGAEHDATNDAALLAAVNAPRGEGMRDIVATIQAEQDQVIRLDHTGVLVIEGGPGTGKTVVALHRVAYLLYTYRKQMERHGVLVVGPTPAFLDHIGRVLPSLGESDAVFMTPGDFVPGLHVTAEDTPEAAEVKGSLKILDVLKAAVADRQELPSEPIPIDLSDVTMRIDAETAKWARDEARKTGLPHNEARAEFVDVVTYVVTERAVARIGRGWLTRDDKHAWEKMRADVVGELEDHEQFNAALDALWPILTPEDVLAQLYTSHERLRAAGAPECLWRADGEAWTVSDVPLLDELVDLLGRNKAADEAAERERREEEAYAAGVLDLMVDREDLMDDEDHLLAQDLIDAEELADRFKEQDNRELSERAAADREWTYGHVVVDEAQELSEMDWRLLMRRCPRRSFTIVGDLAQRRSPAGARSWGAMLDSYVPGRWVYKSLSVNYRTPAEIMAVAAAVLAEFAPDATPPDSVRACGVAPWARQVTDDDIASAIAEFVSEEAGREGTSVVIGPPDVPGTVPPSETKGLEFDAVLVVEPERILADGPRGAAELYVALTRATQRLGVLYRDALPQALAGLAEGDAAATVEQRTSA

Source: article PMC11464796
